Results: paper PMC6588349, “Conformational dynamics between transmembrane domains and allosteric modulation of a metabotropic glutamate receptor” (eLife, 2019)

Target: SNAP-mGluR3 (rat), P31422
Assay: single-molecule pulldown (SiMPull) with subunit counting by photobleaching steps; surface receptors labelled with BG-LD555 on HEK 293T cells, lysed in 1.2% IGEPAL, diluted in 0.1% IGEPAL, immobilised by biotinylated anti-HA antibody on a PEG-passivated coverslip, TIRF imaging; SNAP labelling efficiency ~80%; background two-step bleaching ~5-10%
Conditions: remark: other sources report otherwise

percent of spots bleaching in two steps: 48.9%
stoichiometry N: 2
B1: SNAP-mGluR3, P31422 23-879 (receptor)
chain: LGDHNFMRREIKIEGDLVLGGLFPINEKGTGTEECGRINEDRGIQRLEAMLFAIDEINKDNYLLPGVKLGVHILDTCSRDTYALEQSLEFVRASLTKVDEAEYMCPDGSYAIQENIPLLIAGVIGGSYSSVSIQVANLLRLFQIPQISYASTSAKLSDKSRYDYFARTVPPDFYQAKAMAEILRFFNWTYVSTVASEGDYGETGIEAFEQEARLRNICIATAEKVGRSNIRKSYDSVIRELLQKPNARVVVLFMRSDDSRELIAAANRVNASFTWVASDGWGAQESIVKGSEHVAYGAITLELASHPVRQFDRYFQSLNPYNNHRNPWFRDFWEQKFQCSLQNKRNHRQVCDKHLAIDSSNYEQESKIMFVVNAVYAMAHALHKMQRTLCPNTTKLCDAMKILDGKKLYKEYLLKINFTAPFNPNKGADSIVKFDTFGDGMGRYNVFNLQQTGGKYSYLKVGHWAETLSLDVDSIHWSRNSVPTSQCSDPCAPNEMKNMQPGDVCCWICIPCEPYEYLVDEFTCMDCGPGQWPTADLSGCYNLPEDYIKWEDAWAIGPVTIACLGFLCTCIVITVFIKHNNTPLVKASGRELCYILLFGVSLSYCMTFFFIAKPSPVICALRRLGLGTSFAICYSALLTKTNCIARIFDGVKNGAQRPKFISPSSQVFICLGLILVQIVMVSVWLILETPGTRRYTLPEKRETVILKCNVKDSSMLISLTYDVVLVILCTVYAFKTRKCPENFNEAKFIGFTMYTTCIIWLAFLPIFYVTSSDYRVQTTTMCISVSLSGFVVLGCLFAPKVHIVLFQPQKNVVTHRLHLNRFSVSGTATTYSQSSASTYVPTVCNGREVLDSTTSSL
modifications: here or on the partner: SNAP tag labelled with BG-LD555; SNAP tag labelled with BG-LD555
